Measured values as given in patent US6693184B1, “DNA molecules encoding splice variants of the human melanocortin 1 receptor protein” (Merck & Co., Inc., priority 1998, dated 2004).

Key:
MC-1RB = test: cAMP functional receptor assay in COS-7 cells transfected with MC-1RB expression plasmids; type: cell-based, human; conditions: for approximate rank order of potency in eliciting the cAMP response: COS-7 cells transiently expressing MC-R1B; for rise in intracellular cAMP formation: maximum agonist concentration, compared to background response in sham-transfected COS-7 cells
Description: cAMP Functional Receptor Assay—Receptor-mediated stimulation of cyclic AMP (cAMP) formation was assayed in COS-7 cells transfected with MC-1RB expression plasmids. Cells expressing MC-1RB were dissociated from tissue culture flasks by rinsing with Ca and Mg free phosphate buffered saline (Life Technologies, Gaithersburg, Md.) and detached following 5 min. incubation with enzyme-free dissociation buffer (Specialty Media, Lavellette, N.J.). Cells were collected by centrifugation and resuspended in Earle's Balanced Salt Solution (EBSS) (Life Technologies, Gaithersburg, Md.) with additions of 10 mM HEPES pH 7.5, 5 mM MgCl2, 1 mM glutamine and 1 mg/ml bovine serum albumin. Cells are counted and diluted to 2 to 4×10^6/ml. The phosphodiesterace inhibitor 3-isobutyl-1-methylxanthine was added at a concentration of 0.6 mM. Test peptides were diluted in EBSS with above additions and 10% DMSO; 0.1 vol of compounds added to 0.9 vol of cells. After room temperature incubation for 40 min., cells are lysed by incubation at 100° C. for 5 min. to release accumulated cAMP. cAMP is measured in an aliquot of the cell lysate with the Amersham (Arlington Heights, Ill.) cAMP detection assay (RPA556).
Previous studies (Mountjoy, et al., 1992, Science 257:1248-1251 [see also U.S. Pat. No. 5,532,347]; Chhajlani and Wikberg, 1992, FEBS Letters 309:417-420) has documented that activation of the MC-1RA isoform by melanocortin agonists results in an elevation of intracellular cAMP production through the coupling of G-proteins to activation of membrane-bound adenylate cyclase.

[1] = biological target: human MC-R1B receptor (splice variant of the human melanocortin-1 receptor, 382 amino acids) (human); test: cell-based or functional assay
[2] = biological target: human MC-R1B receptor (splice variant of the human melanocortin-1 receptor, 382 amino acids) (human); test: displacement of 200 pM [125I]-NDP-αMSH from crude membranes of COS-7 cells expressing human MC-R1B
[3] = biological target: human MC-R1B receptor (splice variant of the human melanocortin-1 receptor, 382 amino acids) (human); test: radioligand binding, membranes of COS-7 cells expressing MC-R1B

intracellular cAMP formation in COS-7 cells transiently expressing MC-R1B [1]	IC50 [2]	Molecule	approximate rank order of potency in eliciting the cAMP response (MC-1RB)	rise in intracellular cAMP formation (MC-1RB)	also measured
3 fold	0.2 nM	MT-II (peptide)	–	–	–
3 fold	0.7 nM	NDP-αMSH (unlabelled) (peptide)	–	–	–
3 fold	–	βMSH (from UniProt P01189 213-234) (peptide)	–	–	–
3 fold	–	γMSH (from UniProt P01189 77-88) (peptide)	–	–	–
3 fold	5 nM	SYSMEHFRWGKPV (peptide, UniProt P01189 138-150, looked up) [αMSH]	–	–	–

Second part, the molecule before the results:

Molecule	intracellular cAMP formation in COS-7 cells transiently expressing MC-R1B [1]	IC50 [2]	approximate rank order of potency in eliciting the cAMP response (MC-1RB)	rise in intracellular cAMP formation (MC-1RB)	also measured
MT-II	–	–	MT-II>NDP-MSH>SHU-9119>αMSH>βMSH>γMSH	~3 fold	–
NDP-αMSH	–	–	MT-II>NDP-MSH>SHU-9119>αMSH>βMSH>γMSH	~3 fold	–
SHU-9119	–	–	–	~3 fold	–
SHU-9119 (peptide)	3 fold	0.7 nM	–	–	–
[125I]-NDP-αMSH (peptide)	–	–	–	–	specific binding (percent of total binding) (% of total binding) [3]: > 90
αMSH	–	–	MT-II>NDP-MSH>SHU-9119>αMSH>βMSH>γMSH	~3 fold	–
βMSH: β-melanocyte stimulating hormone, melanocortin peptide derived from the POMC gene	–	–	MT-II>NDP-MSH>SHU-9119>αMSH>βMSH>γMSH	~3 fold	–
SYSMEHFRWGKPVGKKRRPVKVYPNGAEDESAEAFPLEF (peptide, UniProt P01189 138-176, looked up) [ACTH]	–	5 nM	–	–	–
